These are literature values, as cited in article PMC2921697.

The target of data set [1] is Barnase (denatured) (Bacillus amyloliquefaciens) (UniProt P00648). Kind of data set: H/D exchange NMR.
Data set [2] has as its target prion protein (denatured recombinant) (UniProt P04156).

By Kd is commonly meant the constant that tells how readily two partners part at equilibrium. As for GroEL (from UniProt P0A6F5), the Kd in data set [1] was 50 nM.

Regarding Hsp60 (from UniProt P10809), in data set [2], the Kd was 1.5 nM.

In the case of SecB (from UniProt P0AG86), in data set [1], the Kd was 50 nM.
